Assay: yeast display, Sf9 membrane polyspecificity reagent, FACS + sequencing; frameworks hold sequencing errors
Procedure, shortened: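 In a synthetic yeast display library (Saccharomyces cerevisiae BJ5465), nanobody expression was induced with galactose for 36–48 hours. FACS gates were set low and high (top ~1%) using anti-HA fluorescence for expression and streptavidin fluorescence for binding of the Sf9 membrane reagent. Each polyreactivity label is drawn from the gate of origin.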

Row | Sequence | polyreactivity (PSR sort gate)
1 | QVQLVESGGGLVHAGGPLRLSCAASGGIFFSYAMGWYRQAPGKERELVAAIRTNGGTTYYADSVKGRFTISRDNAKNTVYLHMNSLKPEETAVYDCAALPGGYYDRGEYDYWGQGTQVTVSS | low polyreactivity
2 | QVQLVESGGGLVQAGGSLRLSCAASGLIFTSNTMGWYRQAPGKERELVAAISRRGGNTYYADSVKGRFTISRDNAKNTVYLQMNSLKPEDTAVYYCAAVAYALGFASKEDYWGQGTQVTVSS | high polyreactivity
3 | QVQLVESWGGLDQAGGSLRLSCAASGIIFQYYAMGWYRQAPGKERELVAAISWSGGSTYYADSVKGRFTISRDNAKNTVYLQMNSLKPEDTAVYYCAARSRSYWPYEGDYWGQGSQVTVSS | low polyreactivity
4 | QVQLVESGGGLVQAGGSLRLSCAASGIIFRAYAMGWYRQAPGKERELVAAITSRGGSTYYADSVKGRFTISLDNAKNTVYLQKNSLKPEDTAVYYCAADFTIPYWDANFDYWGQGTQVTVSS | low polyreactivity
5 | QVQLVESGGCLVQAGGSLRLSCAASGRTFRRYAMGWYRQAPGKERELVASITWRGGRTYYADSVKGRFTISRDNAKNTVYLQMNSLKPEDTAVYYCAAEDYQLPGYRRTHVEKMDYWGQGTQVTVSS | low polyreactivity
6 | QVQLVESGGGLVQEGGSLLLSCDASGFTFAVYAMGWYRQAPGKERELVAAITTSGTRTYNADSVKGRFTISRDNAKNTVYLQMNSLKPEDTAVYYCAAVVFRQWPEFDYWGQGTQVTVSS | low polyreactivity
7 | QVQLVESGGGLVQAGGSLRLSCAASGRTFGSNAMGWYRQAPGKERELVAAISLRGGRTYYADSVKGRFTISRDNAKNTVYLQMNSLKPEDTAVYYCNAVHYLYGARSRLTYDYWGQGTQVTVSS | high polyreactivity
8 | QVQLVESGGGLVQAGGSLRLSCAASGFTFGRYAMGWYRQAPWKERELVADITWSGGSTYYADSVKGRFSISRDFAKNTVYLQMNSLKPEDTAVYYCNRLSKNREYDYWGQGTQVNVSS | high polyreactivity
9 | QVQLEESGGGVVQAGGSLRISCAASGIIFYRYTMGWYRQAPGKERELVAAIASRGGSTYYADSVKGRFTISRDNAKNTVYLQMNSLKPEDTAVYYCAAGARYGKVRYGYWGQGTQVTVSS | high polyreactivity
10 | QVQLVESGGGLVQAGGSRRLSCAASGNTFYGYAMGWYRQAPGKERELVASITMSGDSTYYADSVKGRFTISRDNAKNTVYLQMNSLKPEYTSVYYCAGVYTYPLGYYHYTYDYWGQGTQVTVSS | low polyreactivity
11 | QVQLVESGGGLVQAGGSLRLSCAASGFTFNSYAMGWYRQAPGKKGSWLAITSDGSTYYADSVKGRFTISRDNAKNTVYLQMNSLKPEDSAVYFCAVRTSWYGAASRYYYWGQGTKVTVSS | high polyreactivity
12 | QVQLVESGGGLVQAGGSLRLSCAASVGIYSQNVRGWYRQAPGKEWELVAAISRRGGRTYYADSVKGRFKISRDNAKNTVYLQMNSLKPEDTAVYYCATLSPERRVYYTYSGLFEYWGQGTQVTVSS | high polyreactivity
13 | QVQLVESGGGLVQAGGSLRLSCAASGRIFWPYAMGWYRQAPGKERELVAVITSGTTTYYADSVKGRFTISRDNAKNTVYLKMNSLKPEDTAVYYCNIFSRARRYFEYDYWGQGTQVTVSS | low polyreactivity
14 | QVQLVESGGGLVQAGGSLRLSCAASGRTFVTYAMGWYRQAPGKERELVAGIRRGGSTYYADSVKGRFTISRDNAKNTVYLQMNSLKPDDPAVYDCAKTFYAHRAYTSYTARPYDYWGQGTQVTVSS | high polyreactivity
15 | QVQLQESGDGLVQAVGSLRLSCAASGYISGYYYMGWYRQAPGKERELVAGIEAFGSSTNYADCVKGRFTISRDNAKNTVYLQMNSPKPEDTAVYYCAAEYDDWDYHWYWGQGTQVTVSS | low polyreactivity
16 | QVQLVESGGGLVQAGGSLRLSCAASGIIFPGYAMGWYRQAPGKVRELVAAISSGGDTYYADSVKGLFTISRDNAKNTVYLQMNSLNPEDTAVYYCTAAQLSSDRTSTYGYWGQGTKVTVSS | low polyreactivity

Row | Sequence | polyreactivity (PSR sort gate)
17 | QVQLVESGGGLVQAGGSLRLSCAASGLIFQVYDMGWYRQAPGKERELVAATSSGSKTNYADSVKGRFTISRDNAKNTVYLQMNSLKPEDTAVYYCAAGGPSTLDDYWGQGTQVTVSS | low polyreactivity
18 | QVQLVESGGGLVQAGGSLRLSCAASGFTFQYNAMGWYRQAPGKERELVAGISRSGANTYYADSVKGRFTISRDTAKNTVYLQMNSLKPEDTAVYYCNNLTSRVGPDEYDYWGQGTQVTVSS | high polyreactivity
19 | QDQLVESGGGVVQAGGSLRLSCAASGRISIWYAMGWYRQAPGKERELVARISTSSGRTYYADSVKGRFTISRDNAKNTVYLQMNSLKPEDTAVYYCNAAGYRIYFSTRYDYWGQGTQVTVSS | high polyreactivity
20 | QVQLVESGGGLVQAGGSLRLSCAPSGRILRGYAMGWYRQAPGKDRELVAAISRRGGSTRYADSVKGRFTISRDNAKNTVYLQMNSLKPEDTAVYYCAPRYHPWCYDYWGQGTQVTVSS | high polyreactivity
21 | QVQLVESGGGLVQAGGSLRLSCAASGSTFVSNAMGWYRQAPGKERELVASISQSGGGTDYADSVKGRFTISRDNAKNTVYLQMNSLKPEDTAVYYCAADRVPVQAPYDYWGQGTQVTVSS | high polyreactivity
22 | QVQLVESGGGLVQAGGSLRLSCAASGSTFPKYAMGWYRPAPGKERELVAAITSRGSTYADSVKGRFTISRDNAKNTVYLPMNSLKPVDTAVYYCAKDSRYASRDYWGQGTQVTVSS | high polyreactivity
23 | QDQLVESGGGLVQSGGSLRLSCAASGSTFYYYAMGWYRQAPGKERELVAAITSSTGRTYYADSVKGRFTISRDNAKYTVYLQMNSLKPEDTAVYYCITRRGSLSGLYVYSIQGYDYWGQGTQVTVSS | low polyreactivity
24 | QVQLVESGGGLVQAGGSLRLSCAASGITFYRYAMGWYRQAPGKERELVAAITGSGDSTYYADSVKGRFTISRDNAKNTVYLQMNSLKPEDTAVYYCNTDYGRRYDYWGQGTQVTVSS | high polyreactivity
25 | QVQLVESGGGLVQAGGSLRLSCAASGYTFGVYVMGWYRQAPGKERELVAAISGSTYYAYSVKGRFTISRDNAKNTVYLQMNSLKPEDTAVYYCAAESYFFSPRTREKFDYWGQGTQVTVSS | low polyreactivity
26 | QVQLVESGGGLVQAGGSLRLICAASGSIIAINVMGWYRQAPGKEREFVAAISVRSGSTYYADSVKGRFTISRDNAKNTVYLQMNSLKPEDTAVYYCAARTSRFWRGGGLDYWGQGTQVTVSS | high polyreactivity
27 | QVQLVESGGGLVQAGGSLRLSCAASGRIFPYYTLGWYTQAPGKERELVATITTGGSTNYADSVKGRFTLSRDNAENTVYLKMNSLKPEDTAVYYCNNDGVVEVRFTGRQEYDYWGQGTQVTVSS | low polyreactivity
28 | QVQLVESGGGLVQAGGSLRLSCAASGSTFSGYAMGWYRQAPGKEREFVATISISGGSTYYADSVKGRFTISRDNAKNTVYLQMNSLKPEDTAVYYCNADYYFSWGSIVDYWGQGTQVTVSS | low polyreactivity
29 | QVQLVESGGGLVQAGGSLRLSCAASGLIFVDNAMGWYRQAPGKERELVAAIDSGGRTYYADSVKGRFTISRDNAKNTVYLQMNSLKPEDTAVYYCAAPWRLFCLYDYWGQGTQVSVSS | low polyreactivity
30 | QVHLVESGGGLVQAGGSLRLSCAASGRTFYDYTMGLDRQAPGKERELVAAISQRGGSTYYADSVKGRFTISRDNAKNTVYLQMNSLKPEDTAVYYCAARTSYSGNKYYYWGQGTQVTVSS | high polyreactivity
31 | QVQLVESGGGLVQAGGSLRLSCAASGRIFNLYAMGWYRPAPGKESELVAAISGSGGRTSYADSVKGRFTISRDNAKNTVYLQMNSLKPEDTAVYYCAADYSFYTSFRYDYWGQGTQVTVSS | low polyreactivity

Reference: the nanobody polyreactivity screen of Harvey et al. (2022)
